Reference: ChEMBL document CHEMBL2074146, “Transport of the sulfated, amidated bile acid, sulfolithocholyltaurine, into rat hepatocytes is mediated by Oatp1 and Oatp2” (Hepatology, 2002)

Experiments:
Assay type in all cases: functional, cell-based
[1] = biological target: T1, Solute carrier organic anion transporter family member 1A4 (Rattus norvegicus, UniProt O35913); experiment: (§1) TP_TRANSPORTER: uptake in Oatp2-expressing HeLa cells; settings: human
T1 sequence (O35913 whole entry): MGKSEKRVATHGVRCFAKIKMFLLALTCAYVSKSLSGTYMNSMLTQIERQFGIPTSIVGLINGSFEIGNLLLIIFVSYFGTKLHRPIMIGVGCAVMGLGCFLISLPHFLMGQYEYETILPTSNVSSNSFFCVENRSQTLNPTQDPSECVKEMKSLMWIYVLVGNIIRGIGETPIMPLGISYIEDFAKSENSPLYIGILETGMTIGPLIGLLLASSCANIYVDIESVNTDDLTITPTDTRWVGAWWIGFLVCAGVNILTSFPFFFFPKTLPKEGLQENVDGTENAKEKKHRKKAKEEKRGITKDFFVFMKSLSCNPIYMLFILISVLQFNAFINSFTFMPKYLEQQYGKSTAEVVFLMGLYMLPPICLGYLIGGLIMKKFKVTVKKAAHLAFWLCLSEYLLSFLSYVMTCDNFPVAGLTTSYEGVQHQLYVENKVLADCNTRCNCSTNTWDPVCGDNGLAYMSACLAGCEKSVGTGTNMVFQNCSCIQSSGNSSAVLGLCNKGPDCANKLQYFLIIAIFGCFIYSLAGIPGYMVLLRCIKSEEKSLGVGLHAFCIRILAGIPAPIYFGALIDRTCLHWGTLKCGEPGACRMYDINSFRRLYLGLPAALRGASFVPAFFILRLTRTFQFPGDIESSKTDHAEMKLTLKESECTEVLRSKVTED

[2] = substrate: [H][C@]12CC[C@]3([H])[C@]([H])(CC[C@]4(C)C([C@H](C)CCC(=O)NCCS(=O)(=O)O)CC[C@@]34[H])[C@@]1(C)CC[C@@H](OS(=O)(=O)O)C2; experiment: TP_TRANSPORTER: uptake in Oatp1-expressing HeLa cells
[3] = substrate: [H][C@]12CC[C@]3([H])[C@]([H])(CC[C@]4(C)C([C@H](C)CCC(=O)NCCS(=O)(=O)O)CC[C@@]34[H])[C@@]1(C)CC[C@@H](OS(=O)(=O)O)C2; experiment: as §1

C[C@]12CC[C@@H]3c4ccc(O)cc4CC[C@H]3[C@@H]1CC[C@@H]2O[C@@H]1O[C@H](C(=O)O)[C@@H](O)[C@H](O)[C@H]1O [ESTRADIOL 17B GLUCURONIDE]
Activity [1]: substrate [+]

B1: Solute carrier organic anion transporter family member 1A1 (Rattus norvegicus) (protein)
chain: MEETEKKIATQEGRLFSKMKVFLLSLTCACLTKSLSGVYMNSMLTQIERQFDISTSVAGLINGSFEIGNLFFIVFVSYFGTKLHRPVVIGIGCVIMGLGCLLMSLPHFFMGRYEYETTISPTGNLSSNSFLCMENRTQTLKPTQDPAECVKEMKSLMWICVMVGNIIRGIGETPIVPLGISYIEDFAKSENSPLYIGILEMGKVAGPIFGLLLGSYCAQIYVDIGSVNTDDLTITPSDTRWVGAWWIGFLVCAGVNILTSIPFFFLPKALPKKGQQENVAVTKDGKVEKYGGQAREENLGITKDFLTFMKRLFCNPIYMLFILTSVLQVNGFINKFTFLPKYLEQQYGKSTAEAIFLIGVYSLPPICLGYLIGGFIMKKFKITVKKAAYLAFCLSVFEYLLFLCHFMLTCDNAAVAGLTTSYKGVQHQLHVESKVLADCNTRCSCSTNTWDPVCGDNGVAYMSACLAGCKKFVGTGTNMVFQDCSCIQSLGNSSAVLGLCKKGPECANRLQYFLILTIIISFIYSLTAIPGYMVFLRCVKSEEKSLGVGLHTFCIRVFAGIPAPVYFGALIDRTCLHWGTLKCGQRGACRMYDINSFRHIYLGLPIALRGSSYLPAFFILILMRKFQFPGDIDSSATDHTEMMLGEKESEHTDVHGSPQVENDGELKTKL
Km [2]: 12.6 µM

B2: Solute carrier organic anion transporter family member 1A4 (Rattus norvegicus) (protein)
chain: MGKSEKRVATHGVRCFAKIKMFLLALTCAYVSKSLSGTYMNSMLTQIERQFGIPTSIVGLINGSFEIGNLLLIIFVSYFGTKLHRPIMIGVGCAVMGLGCFLISLPHFLMGQYEYETILPTSNVSSNSFFCVENRSQTLNPTQDPSECVKEMKSLMWIYVLVGNIIRGIGETPIMPLGISYIEDFAKSENSPLYIGILETGMTIGPLIGLLLASSCANIYVDIESVNTDDLTITPTDTRWVGAWWIGFLVCAGVNILTSFPFFFFPKTLPKEGLQENVDGTENAKEKKHRKKAKEEKRGITKDFFVFMKSLSCNPIYMLFILISVLQFNAFINSFTFMPKYLEQQYGKSTAEVVFLMGLYMLPPICLGYLIGGLIMKKFKVTVKKAAHLAFWLCLSEYLLSFLSYVMTCDNFPVAGLTTSYEGVQHQLYVENKVLADCNTRCNCSTNTWDPVCGDNGLAYMSACLAGCEKSVGTGTNMVFQNCSCIQSSGNSSAVLGLCNKGPDCANKLQYFLIIAIFGCFIYSLAGIPGYMVLLRCIKSEEKSLGVGLHAFCIRILAGIPAPIYFGALIDRTCLHWGTLKCGEPGACRMYDINSFRRLYLGLPAALRGASFVPAFFILRLTRTFQFPGDIESSKTDHAEMKLTLKESECTEVLRSKVTED
Km [3]: 14.6 µM
